The test concerns the target T1, recombinant Src (UniProt P12931 1-536).
T1 construct: the printed kinase domain limits 249-536 fit the 536-residue human protein; the tag on Src may differ between the three pull-downs; also called purified Src; source: recombinant, purified
The experiment in a line: pull-down; in vitro GST pull-down with recombinant or purified proteins; which partner bore GST is not told. Particulars: both partners purified.

B1: purified NMT1 (enzyme, UniProt P30419 1-496, looked up)
chain: MADESETAVKPPAPPLPQMMEGNGNGHEHCSDCENEEDNSYNRGGLSPANDTGAKKKKKKQKKKKEKGSETDSAQDQPVKMNSLPAERIQEIQKAIELFSVGQGPAKTMEEASKRSYQFWDTQPVPKLGEVVNTHGPVEPDKDNIRQEPYTLPQGFTWDALDLGDRGVLKELYTLLNENYVEDDDNMFRFDYSPEFLLWALRPPGWLPQWHCGVRVVSSRKLVGFISAIPANIHIYDTEKKMVEINFLCVHKKLRSKRVAPVLIREITRRVHLEGIFQAVYTAGVVLPKPVGTCRYWHRSLNPRKLIEVKFSHLSRNMTMQRTMKLYRLPETPKTAGLRPMETKDIPVVHQLLTRYLKQFHLTPVMSQEEVEHWFYPQENIIDTFVVENANGEVTDFLSFYTLPSTIMNHPTHKSLKAAYSFYNVHTQTPLLDLMSDALVLAKMKGFDVFNALDLMENKTFLEKLKFGIGDGNLQYYLYNWKCPSMGAEKVGLVLQ
notes: Purified NMT1 protein of the GST pull-down with Src; source: purified
On to B1, for which the binding result is given as “binds”.

Source of the values: paper PMC12510807, “MUC1 drives ferroptosis resistance in ICC via Src‐mediated FSP1 deubiquitination and myristoylation” (Clinical and Translational Medicine, 2025).
